According to PMC8429977, “Phosphorylation of slit diaphragm proteins NEPHRIN and NEPH1 upon binding of HGF promotes podocyte repair” (The Journal of Biological Chemistry, 2021):

B1: NEPH1 Peptide-1 (peptide)
peptide: QEGERVVFTCQATANPEIL
notes: also called NEPH-P1; NEPH1-P1; source: synthetic peptide (Fmoc solid phase, HPLC purified)
B2: NEPHRIN Peptide-1 (peptide)
peptide: PDITILLSGQTISDISANVNEGSQQKL
notes: also called NEPHRIN-P1; NEPHRIN P1; source: synthetic peptide (Fmoc solid phase, HPLC purified)

Molecular target: T1, purified human recombinant HGF (human, UniProt P14210 32-728)
T1 construct: hepatocyte growth factor, human, recombinant, purified; also called hepatocyte growth factor; recombinant human active HGF; source: bought: Sigma
Assay: far-Western, overlay or dot blot; 300 ng peptide spotted on nitrocellulose, blocked with fat-free milk, incubated with 1 μg recombinant purified HGF in 5% BSA in PBS at 4 °C, detected with anti-HGF antibody
Conditions: both partners purified

T1 sequence (P14210 32-728): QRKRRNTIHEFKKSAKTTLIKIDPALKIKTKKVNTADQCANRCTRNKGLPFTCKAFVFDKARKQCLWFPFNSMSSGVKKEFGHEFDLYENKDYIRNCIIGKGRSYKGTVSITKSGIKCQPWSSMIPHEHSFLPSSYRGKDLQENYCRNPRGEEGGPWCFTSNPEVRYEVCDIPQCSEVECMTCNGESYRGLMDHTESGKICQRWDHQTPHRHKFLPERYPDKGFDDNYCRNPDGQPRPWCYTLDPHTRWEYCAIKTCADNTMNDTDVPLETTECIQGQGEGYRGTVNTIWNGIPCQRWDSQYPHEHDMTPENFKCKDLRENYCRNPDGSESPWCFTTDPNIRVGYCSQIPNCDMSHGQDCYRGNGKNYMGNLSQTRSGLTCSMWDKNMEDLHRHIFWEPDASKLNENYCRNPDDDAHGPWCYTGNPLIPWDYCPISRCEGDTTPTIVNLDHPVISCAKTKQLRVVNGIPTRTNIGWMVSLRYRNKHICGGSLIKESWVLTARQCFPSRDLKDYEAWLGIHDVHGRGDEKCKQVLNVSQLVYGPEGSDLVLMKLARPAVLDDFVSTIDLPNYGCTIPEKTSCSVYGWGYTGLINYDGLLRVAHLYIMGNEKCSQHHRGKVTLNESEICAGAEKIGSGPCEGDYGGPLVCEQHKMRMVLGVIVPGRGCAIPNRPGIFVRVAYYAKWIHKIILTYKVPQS

Binder | binding result
B1 | binds
B2 | binds
